Measured values taken from patent US20230079150A1, “METHODS FOR PREVENTION OR TREATMENT OF VIRUS-INDUCED ORGAN INJURY OR FAILURE WITH IL-22 DIMER” (priority 2020, published 2023).

Tests used:
[1] = test system: C57BL/6 mice; experiment: LPS acute lung injury mouse model: endothelial glycocalyx intensity in alveolar capillaries; format: in vivo
Experimental: After approval from the Tulane University, Institutional Animal Care and Use Committee (protocol ID 607), equal numbers of male and female, 6-8 week old C57BL/6 mice (Charles River Laboratories, Cambridge, Mass.) were given acute lung injury (ALI) via intra-tracheally administered LPS. After obtaining appropriate depth of anesthesia using isoflurane, the high-dose LPS group (HDG) received 100 μg of LPS administered intra-tracheally. Approximately 30 minutes after LPS administration, 4 μg of F-652 was administered via tail vein injection (n=11), then compared to animals receiving sham injection (n=8) with phosphate-buffered saline (PBS). In the low-dose LPS group (LDG), 33.3 μg of LPS was administered intra-tracheally. F-652 was again administered at 30 minutes (n=9) and compared to sham injected animals (n=9). […]
Paraformaldehyde-fixed lung segments were flash-frozen in Optimal Cutting Temperature (O.C.T) compound (Sakura) and sectioned on a cryostat. […] Glycocalyx and nuclei (4′,6-diamidino-2-phenylindole) were imaged on an Olympus BX51 fluorescence microscope under identical conditions. ImageJ software was used to quantify glycocalyx fluorescence intensity in the alveolar capillaries from a minimum of 20 regions of interest from 3 mice per condition.

[2] = test system: C57BL/6 mice; experiment: LPS acute lung injury mouse model: BAL cell counts; format: in vivo; settings: for BAL total cell counts: F-652 4 μg tail vein at 30 min
Experimental: (§1) After approval from the Tulane University, Institutional Animal Care and Use Committee (protocol ID 607), equal numbers of male and female, 6-8 week old C57BL/6 mice (Charles River Laboratories, Cambridge, Mass.) were given acute lung injury (ALI) via intra-tracheally administered LPS. After obtaining appropriate depth of anesthesia using isoflurane, the high-dose LPS group (HDG) received 100 μg of LPS administered intra-tracheally. Approximately 30 minutes after LPS administration, 4 μg of F-652 was administered via tail vein injection (n=11), then compared to animals receiving sham injection (n=8) with phosphate-buffered saline (PBS). In the low-dose LPS group (LDG), 33.3 μg of LPS was administered intra-tracheally. F-652 was again administered at 30 minutes (n=9) and compared to sham injected animals (n=9). The Interleukin-22:Fc (F-652) protein is a recombinant fusion protein (F-652) (Evive Biotech, Shanghai, China) with two human IL-22 molecules linked to the Fc portion of human immunoglobulin G2, which extends the half-life of the molecule.
(§2) Euthanasia and bronchoalveolar lavage (BAL) was carried out on post-injury day 4. After obtaining appropriate levels of anesthesia with inhaled isoflurane, the trachea was cannulated using a 26 gauge needle and BAL was performed with three successive washes using 1 mL of PBS. Next, a small segment of the left lower lobe was removed and saved for RNA isolation. Finally, 1 cc of 4% paraformaldehyde was injected to the lung for fixation.
(§3) The BAL fluid was then centrifuged at 500×gravity for 5 minutes. Cells were obtained from the BAL after centrifuge and cell counts performed. Cells were then affixed to glass slides and stained with Wright's stain. To quantify protein in the BAL supernatant, a Bradford protein assay (Bio-Rad Laboratories) was performed. Protein was quantified by measuring absorbance at 595 nm on a BMG Labtech FLUOstar Optima plate reader. In addition, the BAL supernatant was used to measure pro-inflammatory cytokines using a Milliplex Mouse Cytokine/Chemokine Magnetic Bead Panel (Millipore Sigma). The 32 cytokines measured included Eotaxin, Granulocyte Colony-Stimulating Factor (G-CSF), Granulocyte-Monocyte Colony-Stimulating Factor (GM-CSF), Interferon-γ (IFN-γ), Interleukin-1α (IL-1α), IL-1, IL-2, IL-3, IL-4, IL-5, IL-6, IL-7, IL-9, IL-10, IL-12 (p40 segment), IL-12 (p70 segment), IL-13, IL-15, IL-17, Interferon-γ induced protein 10 (IP-10), keratinocyte chemoattractant (KC), leukemia inhibitory factor (LIF), lipopolysaccharide-induced CXC chemokine (LIX), monocyte chemoattractant protein-1 (MCP-1), macrophage colony-stimulating factor (M-CSF), monokine induced by gamma-interferon (MIG), MIP-1α, macrophage inflammatory protein-1β/CCL4 (MIP-1β), MIP-2, regulated upon activation, normal T-cell expressed and presumably secreted (RANTES), tumor necrosis factor-α (TNF-α), vascular endothelial growth factor (VEGF). Human IL-22 was measured using an IL-22 Human ELISA kit (ThermoFisher Scientific). Mouse IL-22 was measured using an IL-22 Mouse/Rat Quantikine ELISA kit (R&D Systems).

[3] = test system: STAT3; settings: F-652 alone compared to control HUVECs
Experimental: To investigate the effects of F-652 on EGX, cultured HUVECs were exposed to either untreated media, 1 μg/mL of LPS, 1 μg/mL of LPS and 0.375 μg/mL of F-652, or 0.375 μg/mL of F-652 alone, for a total of 24 hours.
HUVECs were lysed in lysis buffer (50 mM Tris-HCl pH 7.5, 150 mM NaCl, 0.5 M EDTA, 1% Triton X-100, and Halt™ protease inhibitor cocktail). Proteins were quantified using Bio-Rad protein quantification assay (Bio-Rad Laboratories), and 20-50 μg of protein was separated by SDS-polyacrylamide gel electrophoresis (SDS-PAGE) on a 4-12% gradient acrylamide gel run at 100 V. Proteins were then transferred to 0.45 m PVDF membrane at 30 V for 2 hours. Membranes were blocked in Tris Buffered Saline (TBS: 137 mM NaCl, 20 mM Tris Base), 0.1% Tween 20, and 5% bovine serum albumin (blocking solution) for 1 hour, followed by overnight incubation with primary antibody diluted in TBS, 0.1% Tween 20, and 3% BSA, and 1 hour incubation with horseradish peroxidase-conjugated secondary antibody diluted at 1:5,000. […] Immunoreactive protein was detected using ECL (GE Healthcare) imaged on a Bio-Rad ChemiDoc™ MP Imaging System.

[4] = test system: C57BL/6 mice; experiment: LPS acute lung injury mouse model: BAL inflammatory mediators (Milliplex cytokine panel); format: in vivo; settings: high dose LPS; F-652 4 μg i.v.; day 4
Experimental: as §1, §2, §3

B1: F-652: recombinant IL-22 dimer consisting of two monomeric subunits each comprising a sequence shown in SEQ ID NO: 24 (protein)
chain 1: APISSHCRLDKSNFQQPYITNRTFMLAKEASLADNNTDVRLIGEKLFHGVSMSERCYLMKQVLNFTLEEVLFPQSDRFQPYMQEVVPFLARLSNRLSTCHIEGDDLHIQRNVQKLKDTVKKLGESGEIKAIGELDLLFMSLRNACIGSGGGSGGGGSGGGGSVECPPCPAPPVAGPSVFLFPPKPKDTLMISRTPEVTCVVVDVSHEDPEVQFNWYVDGVEVHNAKTKPREEQFNSTFRVVSVLTVVHQDWLNGKEYKCKVSNKGLPASIEKTISKTKGQPREPQVYTLPPSREEMTKNQVSLTCLVKGFYPSDIAVEWESNGQPENNYKTTPPMLDSDGSFFLYSKLTVDKSRWQQGNVFSCSVMHEALHNHYTQKSLSLSPGK
chain 2: B1 chain 1
modifications: homodimer
[1]; high dose LPS injury
  endothelial glycocalyx intensity, F-652 treated vs sham: no significant difference
[1]; low dose LPS injury, sham 63.7
  endothelial glycocalyx intensity in alveolar capillaries: 80.0 Arbitrary Units
[2]; high-dose LPS (100 μg intra-tracheal), day 4, sham 3.15×10^6
  BAL total cell counts: 5.40×10^5 cells
[2]; high-dose LPS, F-652 4 μg tail vein, day 4, sham 2.72×10^6
  BAL macrophage counts: 1.21×10^5 cells
[2]; high-dose LPS, F-652 4 μg tail vein, day 4, sham 8.99×10^5
  BAL neutrophil counts: 3.69×10^4 cells
[2]; high-dose LPS, F-652 4 μg tail vein, day 4, sham 213,225
  BAL lymphocyte counts: 2,163 cells
[2]; low-dose LPS (33.3 μg intra-tracheal), post-injury day 4, sham 433,889
  BAL total cell counts: 364,444 cells
[2]; low-dose LPS, F-652 4 μg tail vein, day 4, sham 6,556
  BAL lymphocyte count: 1,864 cells
[2]; low-dose LPS, F-652 4 μg tail vein, day 4, sham 6,869
  BAL neutrophil count: 1,653 cells
[2]; low-dose LPS, F-652 4 μg tail vein, day 4, sham 429,262
  BAL macrophage count: 290,611 cells
[3]
  ratio of phosphorylated STAT3 to total STAT3: significantly higher
[4]
  C-X-C Motif Chemokine 5 (LIX) in BAL: 0.00 ± 0.00 pg/mL
  Eotaxin in BAL: 4.63 ± 2.43 pg/mL
  Granulocyte-Macrophage Colony-Stimulating Factor in BAL: 0.00 ± 0.00 pg/mL
  Interferon-γ in BAL: 8.08 ± 2.18 pg/mL
  Interferon-γ-Induced Protein-10 in BAL: 118.40 ± 43.72 pg/mL
  Interleukin-1α in BAL: 69.39 ± 5.91 pg/mL
  Interleukin-1β in BAL: 3.48 ± 1.25 pg/mL
  Interleukin-2 in BAL: 7.33 ± 0.83 pg/mL
  Interleukin-3 in BAL: 1.07 ± 0.02 pg/mL
  Interleukin-4 in BAL: 1.09 ± 0.09 pg/mL
  Interleukin-5 in BAL: 7.86 ± 1.14 pg/mL
  Interleukin-7 in BAL: 1.75 ± 0.18 pg/mL
  Interleukin-9 in BAL: 311.8 ± 38.17 pg/mL
  Interleukin-12 (p40) in BAL: 7.13 ± 1.89 pg/mL
  Interleukin-12 (p70) in BAL: 1.95 ± 1.00 pg/mL
  Interleukin-13 in BAL: 10.56 ± 1.49 pg/mL
  Interleukin-15 in BAL: 6.10 ± 1.02 pg/mL
  Interleukin-17 in BAL: 2.28 ± 0.56 pg/mL
  Keratinocyte Chemoattractant/Growth Regulated Oncogene in BAL: 19.54 ± 3.08 pg/mL
  Macrophage Colony-Stimulating Factor in BAL: 2.89 ± 1.02 pg/mL
  Macrophage Inflammatory Protein-1α in BAL: 45.99 ± 7.56 pg/mL
  Macrophage Inflammatory Protein-1β in BAL: 19.42 ± 7.63 pg/mL
  Macrophage Inflammatory Protein-2 in BAL: 28.63 ± 5.43 pg/mL
  Monocyte Chemoattractant Protein in BAL: 14.66 ± 7.16 pg/mL
  Monocyte Induced by Interferon-γ in BAL: 100.60 ± 35.47 pg/mL
